For assay [1], the target named is T1, Anti-CD28 scFv (VH - linker 1 - VL) (biotinylated (site not stated)).
T1 construct: Biotinylated scFv captured on neutravidin coated plates in the panning ELISA
The experiment in a line: phage ELISA; biotinylated anti-CD28 scFv on neutravidin plate, clonal phage supernatant, anti-M13-HRP detection.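 Also: before phage addition, wells were pretreated with soluble CD28 protein in blocking buffer, or with blocking buffer only as the comparison, then phage were added without washing.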
T1 sequence (scFv, as listed by the source): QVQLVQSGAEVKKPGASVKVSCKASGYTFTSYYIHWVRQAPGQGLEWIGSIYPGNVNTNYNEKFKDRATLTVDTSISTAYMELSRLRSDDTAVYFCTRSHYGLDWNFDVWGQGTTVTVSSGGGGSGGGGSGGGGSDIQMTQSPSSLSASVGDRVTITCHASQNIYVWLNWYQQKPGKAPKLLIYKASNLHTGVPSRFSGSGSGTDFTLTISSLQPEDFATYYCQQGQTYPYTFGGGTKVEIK

Assay [2] has as its target T1, Anti-CD28 scFv (VH - linker 1 - VL). The experiment in a line: phage ELISA; biotinylated anti-CD28 scFv on neutravidin plate, wells pre-incubated with soluble CD28 (competitor), anti-M13-HRP detection.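 Also: bound clonal phage detected by peroxidase-labelled anti-M13 antibody, compared against wells given blocking buffer alone without soluble CD28.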
Procedure: (§1) Clonal phage were harvested as crude supernatants and screened via standard enzyme linked immunosorbent assays (ELISAs). […] Prior to the addition of clonal phage, wells were incubated with blocking buffer and CD28 soluble protein or blocking buffer alone. Without washing or aspirating, clonal phage supernatants were then added to the wells and incubated for a short time. Wells were then washed followed by detection of bound phage using a horse radish peroxidase conjugated anti-M13 antibody.
In assay [3] the target is T2, Anti-CD28 scFv (VH - linker 1 - VL) (biotinylated (site not stated)).
T2 construct: Biotinylated scFv captured on neutravidin coated plates in the panning ELISA
Briefly: phage ELISA as above, wells pre-incubated with soluble CD28 (competitor).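 Also: ELISA of crude clonal phage supernatants added to wells pre-treated with soluble CD28 in blocking buffer, bound phage read out with HRP-conjugated anti-M13 antibody.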 On the technique in general: ELISA stands for enzyme-linked immunosorbent assay.
T2 sequence (scFv, as listed by the source): as above

Assay [4] concerns the target T2, Anti-CD28 scFv (VH - linker 1 - VL). Briefly: phage ELISA; biotinylated anti-CD28 scFv on neutravidin plate, clonal phage supernatant, anti-M13-HRP.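 Also: before the phage were added, wells were pre-incubated with soluble CD28 protein in blocking buffer, or with blocking buffer alone, and were not washed in between.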
Procedure: as §1

Where no end group is shown, it is not given here.

As for MDWCPMFLWHECFN (tested as crude phage supernatant) [Phage-309], the “CD28 scFv signal” value in assay [1] turned out to be 2.38. Besides, the “CD28 scFv signal in presence of CD28” value in assay [2] was found to be 0.591.

For MDWCPFDLWLECFN [Phage-377], in assay [3], the “CD28 scFv signal in presence of CD28” value was 0.12. Besides, the “CD28 scFv signal” value in assay [4] was 0.65.

As to MDWCPRSLWAQCFY [Phage-364], the “CD28 scFv signal in presence of CD28” value in assay [3] was 0.14. The “CD28 scFv signal” value in assay [4] turned out to be 1.39.

Regarding MTWCPAYLWHECFN [Phage-370], the “CD28 scFv signal in presence of CD28” value in assay [3] is 0.139. For the same molecule, in assay [4], the “CD28 scFv signal” value worked out at 0.985.

Regarding MDYCPSYLWHECFA [Phage-380], the “CD28 scFv signal in presence of CD28” value in assay [3] is 0.09. For the same molecule, the “CD28 scFv signal” value in assay [4] worked out at 0.47.

Take MDWCPRYLWPVCFH (tested as crude phage supernatant) [Phage-307]: the “CD28 scFv signal” value in assay [1] amounted to 2.39. Further, the “CD28 scFv signal in presence of CD28” value in assay [2] was determined as 0.602.

As to MDWCPIYLWAECFN (tested as crude phage supernatant) [Phage-299], the “CD28 scFv signal” value in assay [1] was 2.45. Besides, the “CD28 scFv signal in presence of CD28” value in assay [2] was determined as 0.307.

Consider MDWCPRHLWLECFN [Phage-387], for which the “CD28 scFv signal in presence of CD28” value in assay [3] turned out to be 0.074. Moreover, the “CD28 scFv signal” value in assay [4] came to 0.066.

As to MDWCPIALWDFCFA (tested as crude phage supernatant) [Phage-288], the “CD28 scFv signal” value in assay [1] is 2.52. The “CD28 scFv signal in presence of CD28” value in assay [2] turned out to be 0.492.

MDWCPRSLWDYCFA (tested as crude phage supernatant) [Phage-294]: the “CD28 scFv signal” value in assay [1] turned out to be 2.49. In assay [2], the “CD28 scFv signal in presence of CD28” value worked out at 0.235.

With MDWCPRYLWVDCFA [Phage-372], the “CD28 scFv signal in presence of CD28” value in assay [3] was 0.218. Further, the “CD28 scFv signal” value in assay [4] is 0.917.

In the case of MDWCPSFLWYECFN [Phage-367], in assay [3], the “CD28 scFv signal in presence of CD28” value was 0.104. In assay [4], the “CD28 scFv signal” value stood at 1.13.

On to MDWCPRDLWFACFA (tested as crude phage supernatant) [Phage-282], for which the “CD28 scFv signal” value in assay [1] worked out at 2.66. For the same molecule, the “CD28 scFv signal in presence of CD28” value in assay [2] amounted to 0.794.

As to MERCPRYLWHMCYS (tested as crude phage supernatant) [Phage-286], in assay [1], the “CD28 scFv signal” value is 2.59. Besides, the “CD28 scFv signal in presence of CD28” value in assay [2] turned out to be 0.84.

Turning to MSWCPPYLWTVCYN [Phage-368], the “CD28 scFv signal in presence of CD28” value in assay [3] came out at 0.326. In addition, the “CD28 scFv signal” value in assay [4] turned out to be 1.1.

As for MDWCPSYLWPVCFN [Phage-365], the “CD28 scFv signal in presence of CD28” value in assay [3] came to 0.131. Moreover, the “CD28 scFv signal” value in assay [4] stood at 1.18.

As to MHWCPLYLWDECFY [Phage-366], the “CD28 scFv signal in presence of CD28” value in assay [3] was 0.376. Further, the “CD28 scFv signal” value in assay [4] was 1.16.

Regarding MDWCPKFLWDECFA (tested as crude phage supernatant) [Phage-304], in assay [1], the “CD28 scFv signal” value amounted to 2.41. Moreover, the “CD28 scFv signal in presence of CD28” value in assay [2] was 0.376.

Take MDWCPKSLWAECFN (tested as crude phage supernatant) [Phage-308]: in assay [1], the “CD28 scFv signal” value was 2.38. Moreover, the “CD28 scFv signal in presence of CD28” value in assay [2] was 0.162.

For the molecule MAWCPLDLWDKCFY [Phage-374], in assay [3], the “CD28 scFv signal in presence of CD28” value was 0.141. For the same molecule, the “CD28 scFv signal” value in assay [4] stood at 0.77.

For the molecule ILRCQMNLQDECLN [Phage-385], the “CD28 scFv signal in presence of CD28” value in assay [3] was 0.077. The “CD28 scFv signal” value in assay [4] stood at 0.083.

Regarding MDWCPRALWDHCFF (tested as crude phage supernatant) [Phage-292], in assay [1], the “CD28 scFv signal” value came to 2.49. In assay [2], the “CD28 scFv signal in presence of CD28” value came to 0.394.

Consider MDWCPRNLWAECFS [Phage-379], for which the “CD28 scFv signal in presence of CD28” value in assay [3] stood at 0.08. Further, the “CD28 scFv signal” value in assay [4] came out at 0.538.

MHWCPRDLWYECFA [Phage-369]: the “CD28 scFv signal in presence of CD28” value in assay [3] was determined as 0.108. Besides, the “CD28 scFv signal” value in assay [4] was 0.995.

As to MDWCPRILWSDCFN [Phage-373], the “CD28 scFv signal in presence of CD28” value in assay [3] was found to be 0.113. Besides, the “CD28 scFv signal” value in assay [4] turned out to be 0.847.

As to ITWCPTSLWNRCLV [Phage-382], the “CD28 scFv signal in presence of CD28” value in assay [3] was determined as 0.089. Also, the “CD28 scFv signal” value in assay [4] is 0.242.

For MDWCPRYLWHVCFY (tested as crude phage supernatant) [Phage-291], in assay [1], the “CD28 scFv signal” value was found to be 2.5. Besides, the “CD28 scFv signal in presence of CD28” value in assay [2] came out at 1.14.

As for MDWCPRYLWHVCFD (tested as crude phage supernatant) [Phage-302], in assay [1], the “CD28 scFv signal” value is 2.44. In assay [2], the “CD28 scFv signal in presence of CD28” value came out at 0.31.

In the case of IMWCPTSLWNRCVT [Phage-384], in assay [3], the “CD28 scFv signal in presence of CD28” value came out at 0.129. In assay [4], the “CD28 scFv signal” value turned out to be 0.161.

LAGCQRDLATVCVI [Phage-383]: the “CD28 scFv signal in presence of CD28” value in assay [3] amounted to 0.116. Further, in assay [4], the “CD28 scFv signal” value was 0.229.

Turning to MDWCPRHLWNECFN (tested as crude phage supernatant) [Phage-283], in assay [1], the “CD28 scFv signal” value stood at 2.65. Moreover, the “CD28 scFv signal in presence of CD28” value in assay [2] was found to be 0.393.

Regarding MDWCPRHLWFECFF (tested as crude phage supernatant) [Phage-300], the “CD28 scFv signal” value in assay [1] turned out to be 2.45. Besides, in assay [2], the “CD28 scFv signal in presence of CD28” value was determined as 0.479.

With MDWCPRHLWNECFA (tested as crude phage supernatant) [Phage-306], the “CD28 scFv signal” value in assay [1] was found to be 2.39. For the same molecule, the “CD28 scFv signal in presence of CD28” value in assay [2] was found to be 0.17.

As to MDWCPRHLWFECFN (tested as crude phage supernatant) [Phage-293], the “CD28 scFv signal” value in assay [1] turned out to be 2.49. Further, in assay [2], the “CD28 scFv signal in presence of CD28” value worked out at 0.171.

Regarding MDWCPRYLWTECFS (tested as crude phage supernatant) [Phage-303], the “CD28 scFv signal” value in assay [1] is 2.42. Moreover, the “CD28 scFv signal in presence of CD28” value in assay [2] was determined as 0.329.

Consider MDWCPRDLWTECFS (tested as crude phage supernatant) [Phage-305], for which, in assay [1], the “CD28 scFv signal” value was determined as 2.4. In addition, in assay [2], the “CD28 scFv signal in presence of CD28” value stood at 0.174.

For the molecule MDWCPRHLWTYCFH [Phage-376], the “CD28 scFv signal in presence of CD28” value in assay [3] amounted to 0.207. Besides, the “CD28 scFv signal” value in assay [4] is 0.757.

Take MNWCPRALWHECFL [Phage-375]: the “CD28 scFv signal in presence of CD28” value in assay [3] turned out to be 0.107. Besides, the “CD28 scFv signal” value in assay [4] was determined as 0.759.

Take MHWCPLHLWNECFA [Phage-378]: in assay [3], the “CD28 scFv signal in presence of CD28” value is 0.083. Also, the “CD28 scFv signal” value in assay [4] is 0.575.

For MDWCPRYLWHECFF (tested as crude phage supernatant) [Phage-301], the “CD28 scFv signal” value in assay [1] is 2.45. Further, the “CD28 scFv signal in presence of CD28” value in assay [2] worked out at 0.682.

With MDWCPRDLWAMCFA (cysteine pairing not given here; also: displayed on phage as fusion to pIII, tested as crude phage supernatant) [Phage-285], the “CD28 scFv signal” value in assay [1] came to 2.63. In addition, the “CD28 scFv signal in presence of CD28” value in assay [2] turned out to be 0.889.

As for MDWCPRDLWSVCFS (tested as crude phage supernatant) [Phage-290], the “CD28 scFv signal” value in assay [1] turned out to be 2.5. Moreover, the “CD28 scFv signal in presence of CD28” value in assay [2] came to 0.116.

On to MDWCPRSLWFLCFN (tested as crude phage supernatant) [Phage-281], for which the “CD28 scFv signal” value in assay [1] was determined as 2.71. For the same molecule, the “CD28 scFv signal in presence of CD28” value in assay [2] was found to be 1.77.

For the molecule MAWCPRILWHQCFN [Phage-381], in assay [3], the “CD28 scFv signal in presence of CD28” value turned out to be 0.129. Besides, the “CD28 scFv signal” value in assay [4] worked out at 0.322.

In the case of NHWCPTTLWNRCVA [Phage-386], the “CD28 scFv signal in presence of CD28” value in assay [3] stood at 0.093. Moreover, in assay [4], the “CD28 scFv signal” value amounted to 0.078.

Source of the values: patent publication US20260242478A1 (published 2026).
